The values that follow are results of earlier work, collected in publication PMC10947324.

One may read the pKa as the pH at which an ionisable group is half protonated.

Conditions in all cases: monomeric, unstructured Abeta
Data set [1] deals with His13 (UniProt position 684, SGYEVHHQKLV).
Data set [2] concerns the target His14 (UniProt position 685, GYEVHHQKLVF).
Data set [3] concerns the target His6 (UniProt position 677, DAEFRHDSGYE).

“Amyloid-beta peptide (Abeta), monomeric (Homo sapiens (inferred; the article discusses the peptide of Alzheimer's disease patients))”: the pKa in data set [1] is reported as 6.64; in data set [2], 6.67; in data set [3], 6.67.
